EC50 (hNMUR1) buffer data for eight molecules are collected here from patent publication US20240279278A1, “NMU RECEPTOR 2 AGONISTS” (Boehringer Ingelheim International GmbH, priority 2023, published 2024).

Sequences and labels used below:
T1: human neuromedin U receptor 1 (human, UniProt Q9HB89 24-426)
T1 sequence (looked up): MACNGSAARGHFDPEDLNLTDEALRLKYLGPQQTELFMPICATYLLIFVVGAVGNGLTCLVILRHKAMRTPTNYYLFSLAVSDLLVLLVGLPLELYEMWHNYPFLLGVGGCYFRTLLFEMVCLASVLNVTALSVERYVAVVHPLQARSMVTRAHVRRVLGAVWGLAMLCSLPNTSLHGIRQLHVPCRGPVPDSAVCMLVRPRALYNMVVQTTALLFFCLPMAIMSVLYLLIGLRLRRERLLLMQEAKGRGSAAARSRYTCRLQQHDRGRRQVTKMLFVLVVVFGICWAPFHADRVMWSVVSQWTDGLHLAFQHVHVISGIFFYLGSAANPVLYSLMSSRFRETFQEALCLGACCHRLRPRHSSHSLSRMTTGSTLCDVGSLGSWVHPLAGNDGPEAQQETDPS

B1: C18DA-gGlu3-Sar12-AEPipAc-Tyr-Phe-NMeLeu-Nle-Orn-Pro-Arg-Gly-NH2 (peptide)
peptide: EEEXXXXXXXXXXXXXYFLXXPRG
HELM: PEPTIDE1{[O=C(O)CCCCCCCCCCCCCCCCC(=O)[*:2]].[gGlu].[gGlu].[gGlu].[Sar].[Sar].[Sar].[Sar].[Sar].[Sar].[Sar].[Sar].[Sar].[Sar].[Sar].[Sar].[O=C(CN1CCN(CCN[*:1])CC1)[*:2]].Y.F.[meL].[Nle].[Orn].P.R.G.[am]}$$$$V2.0
SMILES: CCCC[C@H](NC(=O)[C@H](CC(C)C)N(C)C(=O)[C@H](Cc1ccccc1)NC(=O)[C@H](Cc1ccc(O)cc1)NC(=O)CN1CCN(CCNC(=O)CN(C)C(=O)CN(C)C(=O)CN(C)C(=O)CN(C)C(=O)CN(C)C(=O)CN(C)C(=O)CN(C)C(=O)CN(C)C(=O)CN(C)C(=O)CN(C)C(=O)CN(C)C(=O)CN(C)C(=O)CC[C@H](NC(=O)CC[C@H](NC(=O)CC[C@H](NC(=O)CCCCCCCCCCCCCCCCC(=O)O)C(=O)O)C(=O)O)C(=O)O)CC1)C(=O)N[C@@H](CCCN)C(=O)N1CCC[C@H]1C(=O)N[C@@H](CCCNC(=N)N)C(=O)NCC(N)=O
B2: C20DA-gGlu3-Sar15-AEPipAc-Tyr-Phe-NMeLeu-Nle-Dbu-Pro-Arg-Gly-NH2 (peptide)
peptide: EEEXXXXXXXXXXXXXXXXYFLXXPRG
HELM: PEPTIDE1{[O=C(O)CCCCCCCCCCCCCCCCCCC(=O)[*:2]].[gGlu].[gGlu].[gGlu].[Sar].[Sar].[Sar].[Sar].[Sar].[Sar].[Sar].[Sar].[Sar].[Sar].[Sar].[Sar].[Sar].[Sar].[Sar].[O=C(CN1CCN(CCN[*:1])CC1)[*:2]].Y.F.[meL].[Nle].[Dab].P.R.G.[am]}$$$$V2.0
SMILES: CCCC[C@H](NC(=O)[C@H](CC(C)C)N(C)C(=O)[C@H](Cc1ccccc1)NC(=O)[C@H](Cc1ccc(O)cc1)NC(=O)CN1CCN(CCNC(=O)CN(C)C(=O)CN(C)C(=O)CN(C)C(=O)CN(C)C(=O)CN(C)C(=O)CN(C)C(=O)CN(C)C(=O)CN(C)C(=O)CN(C)C(=O)CN(C)C(=O)CN(C)C(=O)CN(C)C(=O)CN(C)C(=O)CN(C)C(=O)CN(C)C(=O)CC[C@H](NC(=O)CC[C@H](NC(=O)CC[C@H](NC(=O)CCCCCCCCCCCCCCCCCCC(=O)O)C(=O)O)C(=O)O)C(=O)O)CC1)C(=O)N[C@@H](CCN)C(=O)N1CCC[C@H]1C(=O)N[C@@H](CCCNC(=N)N)C(=O)NCC(N)=O
B3: C20DA-gGlu3-Sar9-AEPipAc-Tyr-Phe-NMeLeu-Nle-Arg-Pro-Arg-Gly-NH2 (peptide)
peptide: EEEXXXXXXXXXXYFLXRPRG
HELM: PEPTIDE1{[O=C(O)CCCCCCCCCCCCCCCCCCC(=O)[*:2]].[gGlu].[gGlu].[gGlu].[Sar].[Sar].[Sar].[Sar].[Sar].[Sar].[Sar].[Sar].[Sar].[O=C(CN1CCN(CCN[*:1])CC1)[*:2]].Y.F.[meL].[Nle].R.P.R.G.[am]}$$$$V2.0
SMILES: CCCC[C@H](NC(=O)[C@H](CC(C)C)N(C)C(=O)[C@H](Cc1ccccc1)NC(=O)[C@H](Cc1ccc(O)cc1)NC(=O)CN1CCN(CCNC(=O)CN(C)C(=O)CN(C)C(=O)CN(C)C(=O)CN(C)C(=O)CN(C)C(=O)CN(C)C(=O)CN(C)C(=O)CN(C)C(=O)CN(C)C(=O)CC[C@H](NC(=O)CC[C@H](NC(=O)CC[C@H](NC(=O)CCCCCCCCCCCCCCCCCCC(=O)O)C(=O)O)C(=O)O)C(=O)O)CC1)C(=O)N[C@@H](CCCNC(=N)N)C(=O)N1CCC[C@H]1C(=O)N[C@@H](CCCNC(=N)N)C(=O)NCC(N)=O
B4: C18DA-gGlu3-Sar12-AEPipAc-Tyr-Phe-NMeLeu-Nle-Dbu-NMeAla-Arg-Gly-NH2 (peptide)
peptide: EEEXXXXXXXXXXXXXYFLXXARG
HELM: PEPTIDE1{[O=C(O)CCCCCCCCCCCCCCCCC(=O)[*:2]].[gGlu].[gGlu].[gGlu].[Sar].[Sar].[Sar].[Sar].[Sar].[Sar].[Sar].[Sar].[Sar].[Sar].[Sar].[Sar].[O=C(CN1CCN(CCN[*:1])CC1)[*:2]].Y.F.[meL].[Nle].[Dab].[meA].R.G.[am]}$$$$V2.0
SMILES: CCCC[C@H](NC(=O)[C@H](CC(C)C)N(C)C(=O)[C@H](Cc1ccccc1)NC(=O)[C@H](Cc1ccc(O)cc1)NC(=O)CN1CCN(CCNC(=O)CN(C)C(=O)CN(C)C(=O)CN(C)C(=O)CN(C)C(=O)CN(C)C(=O)CN(C)C(=O)CN(C)C(=O)CN(C)C(=O)CN(C)C(=O)CN(C)C(=O)CN(C)C(=O)CN(C)C(=O)CC[C@H](NC(=O)CC[C@H](NC(=O)CC[C@H](NC(=O)CCCCCCCCCCCCCCCCC(=O)O)C(=O)O)C(=O)O)C(=O)O)CC1)C(=O)N[C@@H](CCN)C(=O)N(C)[C@@H](C)C(=O)N[C@@H](CCCNC(=N)N)C(=O)NCC(N)=O
B5: C18DA-gGlu3-Sar15-AEPipAc-Tyr-Phe-NMeLeu-Nle-Arg-Pro-Arg-Gly-NH2 (peptide)
peptide: EEEXXXXXXXXXXXXXXXXYFLXRPRG
HELM: PEPTIDE1{[O=C(O)CCCCCCCCCCCCCCCCC(=O)[*:2]].[gGlu].[gGlu].[gGlu].[Sar].[Sar].[Sar].[Sar].[Sar].[Sar].[Sar].[Sar].[Sar].[Sar].[Sar].[Sar].[Sar].[Sar].[Sar].[O=C(CN1CCN(CCN[*:1])CC1)[*:2]].Y.F.[meL].[Nle].R.P.R.G.[am]}$$$$V2.0
SMILES: CCCC[C@H](NC(=O)[C@H](CC(C)C)N(C)C(=O)[C@H](Cc1ccccc1)NC(=O)[C@H](Cc1ccc(O)cc1)NC(=O)CN1CCN(CCNC(=O)CN(C)C(=O)CN(C)C(=O)CN(C)C(=O)CN(C)C(=O)CN(C)C(=O)CN(C)C(=O)CN(C)C(=O)CN(C)C(=O)CN(C)C(=O)CN(C)C(=O)CN(C)C(=O)CN(C)C(=O)CN(C)C(=O)CN(C)C(=O)CN(C)C(=O)CC[C@H](NC(=O)CC[C@H](NC(=O)CC[C@H](NC(=O)CCCCCCCCCCCCCCCCC(=O)O)C(=O)O)C(=O)O)C(=O)O)CC1)C(=O)N[C@@H](CCCNC(=N)N)C(=O)N1CCC[C@H]1C(=O)N[C@@H](CCCNC(=N)N)C(=O)NCC(N)=O
B6: C20DA-gGlu3-Sar12-AEPipAc-Tyr-Phe-NMeLeu-Nle-Arg-Pro-Arg-Gly-NH2 (peptide)
peptide: EEEXXXXXXXXXXXXXYFLXRPRG
HELM: PEPTIDE1{[O=C(O)CCCCCCCCCCCCCCCCCCC(=O)[*:2]].[gGlu].[gGlu].[gGlu].[Sar].[Sar].[Sar].[Sar].[Sar].[Sar].[Sar].[Sar].[Sar].[Sar].[Sar].[Sar].[O=C(CN1CCN(CCN[*:1])CC1)[*:2]].Y.F.[meL].[Nle].R.P.R.G.[am]}$$$$V2.0
SMILES: CCCC[C@H](NC(=O)[C@H](CC(C)C)N(C)C(=O)[C@H](Cc1ccccc1)NC(=O)[C@H](Cc1ccc(O)cc1)NC(=O)CN1CCN(CCNC(=O)CN(C)C(=O)CN(C)C(=O)CN(C)C(=O)CN(C)C(=O)CN(C)C(=O)CN(C)C(=O)CN(C)C(=O)CN(C)C(=O)CN(C)C(=O)CN(C)C(=O)CN(C)C(=O)CN(C)C(=O)CC[C@H](NC(=O)CC[C@H](NC(=O)CC[C@H](NC(=O)CCCCCCCCCCCCCCCCCCC(=O)O)C(=O)O)C(=O)O)C(=O)O)CC1)C(=O)N[C@@H](CCCNC(=N)N)C(=O)N1CCC[C@H]1C(=O)N[C@@H](CCCNC(=N)N)C(=O)NCC(N)=O
B7: C20DA-gGlu3-Sar15-AEPipAc-Tyr-Phe-NMeLeu-Nle-Dbu-NMeAla-Arg-Gly-NH2 (peptide)
peptide: EEEXXXXXXXXXXXXXXXXYFLXXARG
HELM: PEPTIDE1{[O=C(O)CCCCCCCCCCCCCCCCCCC(=O)[*:2]].[gGlu].[gGlu].[gGlu].[Sar].[Sar].[Sar].[Sar].[Sar].[Sar].[Sar].[Sar].[Sar].[Sar].[Sar].[Sar].[Sar].[Sar].[Sar].[O=C(CN1CCN(CCN[*:1])CC1)[*:2]].Y.F.[meL].[Nle].[Dab].[meA].R.G.[am]}$$$$V2.0
SMILES: CCCC[C@H](NC(=O)[C@H](CC(C)C)N(C)C(=O)[C@H](Cc1ccccc1)NC(=O)[C@H](Cc1ccc(O)cc1)NC(=O)CN1CCN(CCNC(=O)CN(C)C(=O)CN(C)C(=O)CN(C)C(=O)CN(C)C(=O)CN(C)C(=O)CN(C)C(=O)CN(C)C(=O)CN(C)C(=O)CN(C)C(=O)CN(C)C(=O)CN(C)C(=O)CN(C)C(=O)CN(C)C(=O)CN(C)C(=O)CN(C)C(=O)CC[C@H](NC(=O)CC[C@H](NC(=O)CC[C@H](NC(=O)CCCCCCCCCCCCCCCCCCC(=O)O)C(=O)O)C(=O)O)C(=O)O)CC1)C(=O)N[C@@H](CCN)C(=O)N(C)[C@@H](C)C(=O)N[C@@H](CCCNC(=N)N)C(=O)NCC(N)=O
B8: C20DA-gGlu3-Sar15-AEPipAc-Tyr-Phe-NMeLeu-Nle-Orn-Pro-Arg-Gly-NH2 (peptide)
peptide: EEEXXXXXXXXXXXXXXXXYFLXXPRG
HELM: PEPTIDE1{[O=C(O)CCCCCCCCCCCCCCCCCCC(=O)[*:2]].[gGlu].[gGlu].[gGlu].[Sar].[Sar].[Sar].[Sar].[Sar].[Sar].[Sar].[Sar].[Sar].[Sar].[Sar].[Sar].[Sar].[Sar].[Sar].[O=C(CN1CCN(CCN[*:1])CC1)[*:2]].Y.F.[meL].[Nle].[Orn].P.R.G.[am]}$$$$V2.0
SMILES: CCCC[C@H](NC(=O)[C@H](CC(C)C)N(C)C(=O)[C@H](Cc1ccccc1)NC(=O)[C@H](Cc1ccc(O)cc1)NC(=O)CN1CCN(CCNC(=O)CN(C)C(=O)CN(C)C(=O)CN(C)C(=O)CN(C)C(=O)CN(C)C(=O)CN(C)C(=O)CN(C)C(=O)CN(C)C(=O)CN(C)C(=O)CN(C)C(=O)CN(C)C(=O)CN(C)C(=O)CN(C)C(=O)CN(C)C(=O)CN(C)C(=O)CC[C@H](NC(=O)CC[C@H](NC(=O)CC[C@H](NC(=O)CCCCCCCCCCCCCCCCCCC(=O)O)C(=O)O)C(=O)O)C(=O)O)CC1)C(=O)N[C@@H](CCCN)C(=O)N1CCC[C@H]1C(=O)N[C@@H](CCCNC(=N)N)C(=O)NCC(N)=O

The experiment deals with T1, human neuromedin U receptor 1. Put plainly: cell-based or functional assay.
As to B1, the EC50 (hNMUR1) buffer came out at 660 nM.
As for B2, the EC50 (hNMUR1) buffer came out at 1500 nM.
Take B3: the EC50 (hNMUR1) buffer is 130 nM.
With B4, the EC50 (hNMUR1) buffer was > 1000 nM.
The molecule B5 returned an EC50 (hNMUR1) buffer of 250 nM.
Then B6, with 120 nM.
To B7 belongs > 1000 nM; to B8, 890 nM.
